Assay results: article PMC4460818, “Regulation of NDR1 activity by PLK1 ensures proper spindle orientation in mitosis” (Scientific Reports, 2015)

B1: GST-Mob1A (natural protein, human (cDNA from HeLa), UniProt Q9H8S9 1-216, looked up)
chain: MSFLFSSRSSKTFKPKKNIPEGSHQYELLKHAEATLGSGNLRQAVMLPEGEDLNEWIAVNTVDFFNQINMLYGTITEFCTEASCPVMSAGPRYEYHWADGTNIKKPIKCSAPKYIDYLMTWVQDQLDDETLFPSKIGVPFPKNFMSVAKTILKRLFRVYAHIYHQHFDSVMQLQEEAHLNTSFKHFIFFVQEFNLIDRRELAPLQELIEKLGSKDR
notes: Mob1A; cDNA isolated by PCR from a HeLa cDNA library, cloned into pGEX-6P-1; Vector pGEX-6P-1, BamHI and SalI; also called recombinant Mob1A; source: E. coli, purified by glutathione-agarose beads

What was measured:
MBP-NDR1 wild type = biological target: T1, MBP-NDR1 wild type (human, UniProt Q15208 1-465); experiment: pull-down; GST or GST-fusion protein on agarose beads incubated with purified dissolved MBP-tagged proteins in PBS, 0.1% Triton X-100, 0.5 mM DTT, 4 °C, 3-8 hours; SDS-PAGE, CBB stain; bands quantified by ImageJ for the Mob1A pull-down; details: both partners purified
T1 construct: NDR1 kinase, human, full length; cDNA isolated by PCR from a HeLa cDNA library; Vector pMAL-C2x; also called MBP-tagged NDR1; NDR1^WT; source: E. coli, purified by amylose beads, eluted by 10 mM maltose (told for MBP and the MBP-NDR1 mutants)
T1 sequence (Q15208 whole entry, the tested form may be a part): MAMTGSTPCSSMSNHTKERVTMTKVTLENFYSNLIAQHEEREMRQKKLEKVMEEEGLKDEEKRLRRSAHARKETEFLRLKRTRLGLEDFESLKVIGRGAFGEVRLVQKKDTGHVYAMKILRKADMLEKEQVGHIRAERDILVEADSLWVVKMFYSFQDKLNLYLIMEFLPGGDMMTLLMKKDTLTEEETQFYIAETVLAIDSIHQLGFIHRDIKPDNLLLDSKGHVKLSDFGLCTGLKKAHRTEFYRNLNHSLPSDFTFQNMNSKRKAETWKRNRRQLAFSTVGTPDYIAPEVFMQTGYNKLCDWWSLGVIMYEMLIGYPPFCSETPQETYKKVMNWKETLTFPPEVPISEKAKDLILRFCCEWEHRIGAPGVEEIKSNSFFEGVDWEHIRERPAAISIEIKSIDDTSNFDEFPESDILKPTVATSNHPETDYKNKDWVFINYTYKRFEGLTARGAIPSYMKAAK

GST-Mob1A = biological target: B1; experiment: as above; details: both partners purified

B1: binds (MBP-NDR1 wild type).

B2: MBP-NDR1^3A (enzyme)
chain: not shown
notes: NDR1 kinase, human, full length, Thr7, Thr183 and Thr407 mutated to alanines; Mutants were made on the siRNA-resistant (silent changes) NDR1 plasmid; source: E. coli, purified dissolved MBP-tagged protein
With B2 the “percent retained relative to NDR1^WT” value (GST-Mob1A) was > 90%.

B3: MBP-NDR1^3E (enzyme)
chain: not shown
notes: NDR1 kinase, human, full length, phospho-mimicking mutant of the PLK1 sites Thr7, Thr183 and Thr407 (3E); glutamate is read from that name; Mutants were made on the siRNA-resistant NDR1 plasmid; also called phosphomimetic mutant NDR1^3E; source: E. coli, purified dissolved MBP-tagged protein
With B3 the “percent bound relative to NDR1^WT” value (GST-Mob1A) was < 30%.
